Molecular target: custom-expressed human TDP-43 (Nanjing GenScript Biotechnology Co., Ltd., C134WHE160-2/P5HF001), Q13148
Sequence (Q13148 whole entry): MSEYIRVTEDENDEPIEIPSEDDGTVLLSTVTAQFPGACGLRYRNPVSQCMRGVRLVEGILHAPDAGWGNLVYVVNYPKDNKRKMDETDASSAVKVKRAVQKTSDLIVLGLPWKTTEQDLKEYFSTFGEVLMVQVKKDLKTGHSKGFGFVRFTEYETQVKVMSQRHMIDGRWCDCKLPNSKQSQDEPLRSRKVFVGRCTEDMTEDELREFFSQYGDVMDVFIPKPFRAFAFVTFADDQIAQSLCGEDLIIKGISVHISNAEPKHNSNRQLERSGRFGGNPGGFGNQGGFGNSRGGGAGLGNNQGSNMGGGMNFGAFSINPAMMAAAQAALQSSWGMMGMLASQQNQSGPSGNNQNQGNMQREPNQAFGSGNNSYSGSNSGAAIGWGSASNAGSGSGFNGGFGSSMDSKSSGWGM

B1: human plasminogen purified from human donor plasma (protein)
chain: KVYLSECKTGNGKNYRGTMSKTKNGITCQKWSSTSPHRPRFSPATHPSEGLEENYCRNPDNDPQGPWCYTTDPEKRYDYCDILECEEECMHCSGENYDGKISKTMSGLECQAWDSQSPHAHGYIPSKFPNKNLKKNYCRNPDRELRPWCFTTDPNKRWELCDIPRCTTPPPSSGPTYQCLKGTGENYRGNVAVTVSGHTCQHWSAQTPHTHNRTPENFPCKNLDENYCRNPDGKRAPWCHTTNSQVRWEYCKIPSCDSSPVSTEQLAPTAPPELTPVVQDCYHGDGQSYRGTSSTTTTGKKCQSWSSMTPHRHQKTPENYPNAGLTMNYCRNPDADKGPWCFTTDPSVRWEYCNLKKCSGTEASVVAPPPVVLLPDVETPSEEDCMFGNGKGYRGKRATTVTGTPCQDWAAQEPHRHSIFTPETNPRAGLEKNYCRNPDGDVGGPWCYTTNPRKLYDYCDVPQCAAPSFDCGKPQVEPKKCPGRVVGGCVAHPHSWPWQVSLRTRFGMHFCGGTLISPEWVLTAAHCLEKSPRPSSYKVILGAHQEVNLEPHVQEIEVSRLFLEPTRKDIALLKLSSPAVITDKVIPACLPSPNYVVADRTECFITGWGETQGTFGAGLLKEAQLPVIENKVCNRYEFLNGRVQSTELCAGHLAGGTDSCQGDSGGPLVCFEKDKYILQGVTSWGLGCARPNKPGVYVRVSRFVTWIEGVMRNN
With B1 the “Western blot and band density of TDP-43 after 3 h at 37 C with plasminogen in normal mouse brain homogenate” value was “the amounts of TDP-43 monomer, HMW and LMW in the plasminogen group are significantly lower than those in the vehicle control group”.
